The test system of assay [1] is Arabidopsis mutant line AS11. Briefly: Complementation of Arabidopsis AS11 DGAT mutant by seed-specific expression of TmDGAT1. In kind it is in vivo, Arabidopsis thaliana. The following applies: homozygous T3 seed lines, napin promoter. On the procedure: FIG. 9. Complementation of A. thaliana AS11 mutant seed oil and fatty acid profile by expression of TmDGAT1. Transformation of Arabidopsis mutant line AS11 with the TmDGAT1 cDNA under the control of a napin promoter leads to a restoration of (A) fatty acid composition profile of the transgenic lines and (B) the WT level oil content. Total oil content (as percentage of mature seed dry weight) and fatty acid composition (% wt/wt) were determined on the seed oil extracted from T3 seeds of Arabidopsis pSE:WT and pSE:AS11 (empty plasmid) controls and from napin:TmDGAT1 AS11 transgenics lines.
The final binary vector (napin/DGAT/nos) was verified and electroporated into Agrobacterium tumefaciens cells strain GV3101 containing helper plasmid pMP90 (Koncz and Schell, 1986). Plasmid integrity was verified by DNA sequencing following its re-isolation from A. tumefaciens and transformation into E. coli. […]
The coding region of the TmDGAT1 (SEQ. ID. NO: 2) was cloned into a pSE vector behind the seed-specific napin promoter. […] At the same time several independent plasmid only control AS11 transgenic (pSE vector without DGAT1 insert) lines, as well as napin:TmDGAT1 in WT and pSE in WT transgenic lines were propagated and analyzed. […]

The test system of another assay is DGAT activity. In words: TmDGAT1 expressed in Sf9 insect cells, DGAT assay of membrane fractions. The following applies: Sf9 total membrane fraction (100,000×g pellet), 48 hours; sn-1,2-diolein + [1-14C]oleoyl-CoA. It is filed as biochemical, Tropaeolum majus. The method, then: FIG. 7. Expression of T. majus DGAT1 in baculovirus insect cells. TmDGAT1 activity was determined using membranes isolated from insect cells infected with wild type baculovirus (Control) and TmDGAT1 recombinant baculovirus in the presence of sn-1,2-diolein and [1-^14C]oleoyl-CoA.
The coding region of TmDGAT1 (SEQ. ID. NO: 2) was sub-cloned into pFastBAC for expression of the protein in an insect cell expression system (Bac-to-Bac baculovirus expression system, Invitrogen). Escherichia coli DH10Bac cells were transformed with the construct to generate recombinant bacmid DNA, and then the bacmid DNA was isolated and used to transfect Sf9 insect cells. The virus stock harvested from the transfected cells was used to re-infect fresh Sf9 insect cells. Insect cells (2.5×10^6 per 25 cm^2 dish) were infected with virus and were collected at 48 h by centrifugation and washed twice with PBS (Hobbs et al., 1999). […]
DGAT assays were conducted at pH 7.4, with shaking at 100 rev/min in a water bath at 30° C. for 60 min. […] The ^14C-labelled TAGs were isolated by TLC on silica gel G plates developed in hexane:diethyl ether:acetic acid (70:30:1 v/v/v/), the radiolabelled TAG bands visualized on a Bioscan AR-2000 radio-TLC scanner using Win-Scan 2D© software (Bioscan Inc., Washington D.C., USA) and the bands scraped and quantified as described by Taylor et al. (1991). […]

B1: TmDGAT1: Tropaeolum majus acyl-CoA-dependent diacylglycerol acyltransferase 1, 518 amino acids (SEQ ID NO: 3), encoded by ORF SEQ ID NO: 2 (protein, listed as Tropaeolum majus)
chain: MAVAESSQNTTTMSGHGDSDLNNFRRRKPSSSVIEPSSSGFTSTNGVPATGHVAENRDQDRVGAMENATGSVNLIGNGGGVVIGNEEKQVGETDIRFTYRPSFPAHRRVRESPLSSDAIFKQSHAGLFNLCIVVLIAVNSRLIIENLMKYGWLIDTGFWFSSRSLGDWSIFMCCLTLPIFPLAAFIVEKLVQRNHISELVAVLLHVIVSTAAVLYPVIVILTCDSVYMSGVVLMLFGCIMWLKLVSYAHTSSDIRTLAKSGYKGDAHPNSTIVSCSYDVSLKSLAYFMVAPTLCYQPSYPRSSCIRKGWVVRQFVKLIVFIGLMGFIIEQYINPIVRNSKHPLKGDFLYAIERVLKLSVPNLYVWLCMFYSFFHLWLNILAELLRFGDREFYKDWWNAKTVAEYWKMWNMPVHRWMVRHLYFPCLRNGIPKEGAIIIAFLVSGAFHELCIAVPCHVFKLWAFIGIMFQVPLVLITNYLQEKFSNSMVGNMIFWFIFCILGQPMCVLLYYHDLINLKEK
Consider B1, for which, in assay [1], the “TAG levels of AS11 seed after expression” value is “at least as high as that found in wild type Arabidopsis”; the “fatty acid composition of AS11 seed oil after expression” value is “restoring the proportions of 18:1, 20:1 and 18:3 to give a WT profile”. Also, the “DGAT activity relative to membrane fraction from control cells infected with vector only” value with DGAT activity is reported as “about 10 fold”.

The values above are taken from US8124835B2, “Acyl-coa-dependent diacylglycerol acyltransferas 1 (DGAT1) gene from Tropaeolum majus, protein encoded thereby and uses thereof” (National Research Council of Canada, priority 2006, dated 2012).
